In publication doi:10.1101/2023.01.10.523494 (bioRxiv, 2023):

B1: mRBD2 Fab fragment (Fab, V domains shown)
VH: QVQLQQSGAELARPGASVKLSCKASGYTFISNGISWVKQRTGQGLEWIGEIYPRNGNTYYNEKFKGKATLTADKSSSTAYMELRSLTSEDSAVFFCARDYYYGSFDYWGQGTTLTVSS
VL: DIQMTQSPSSLSASLGERVSLTCRASREISGYLTWLQQKPDGTIKRLIYAASTLDSGVPKRFSGSRSGSDYSLTISSLESEDFADYYCLQYASYPWTFGGGTKLEIK
B2: hRBD14 (antibody, V domains shown)
VH: EVQLVESGGGLVQPGGSLRLSCAASGFSFSSSDMHWVRQATGKGLEWVSGIGTSGDTYYLGSVKGRFTISRDDAKNSFYLQMNSLRAGDTAVYYCARGEMAATGLWYYFDYWGQGTLVTVSS
VL: not shown
B3: hRBD15 (antibody, V domains shown)
VH: QVQLVQSGAEVKKPGASVKVSCKASGYTFTSQYMHWVRQAPGQGLEWMGIINPSGGSTSYAQKFQGRVTMTSDTSTSTVYMELSSLRSEDTAVYYCARDIYFVPARGGFDPWGQGTLVTVSS
VL: EIVLTQSPGTLSLSPGERATLSCRASQSIISSYLAWYQQKPGQAPRLLIYGASSRATGIPDRFSGSGSGTDFTLTISRLEPEDFAVYYCQQSGSAPRYTFGQGTKLEIK

What was measured:
[1] = target: SARS-CoV-2 RBD for crystallisation (SARS-CoV-2 (wildtype), UniProt P0DTC2); test: crystal structure
[2] = target: receptor binding domain (RBD) of the wildtype (WT) SARS-CoV-2 spike protein (SARS-CoV-2, wildtype (sequence as in …))

Row | Binder | binding result [1] | binding result [2]
1 | B1 | binds | –
2 | B2 | – | binds
3 | B3 | – | binds
